The koff is the first-order rate constant of dissociation. Higher therefore signals fast dissociation.

The values that follow come from article PMC11924945 (2024).

The target of the experiment is human CD47 (19 to 135) tagged with human immunoglobulin G1 Fc (N297A) (human, UniProt Q08722 19-135, biotin (NHS-biotin, 10-fold molar excess) in SPR). In words: SPR. (In SPR one partner is held on a chip, and binding of the other changes the refractive index at the surface.)
Chain of human CD47 (19 to 135) tagged with human immunoglobulin G1 Fc (N297A) (Q08722 19-135, stated change not applied): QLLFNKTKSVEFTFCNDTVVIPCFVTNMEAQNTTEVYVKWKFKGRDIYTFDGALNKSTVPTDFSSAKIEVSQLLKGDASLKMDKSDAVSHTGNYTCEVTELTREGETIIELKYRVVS

B1: Aedes aegypti Nest1 (neutrophil-stimulating factor 1), recombinant, amino acids 22 to 316 (natural protein)
chain: KPTQGSCTLTDEDISDIKSAVQKASKAAVNDIVLDPTLIDKCPMLEKITASLKSVATEIVQMRDSAISTDQVDQLKQNFEDQVNQIVKSRDIFEKQSGTQATKEHGEMLERMTALQVKVTELEQQIAKQTASMYEDMAELIFQRLQMNSTESVRSYTKHMMEEKLEELMNKLETNYRIYLGALRFLNHMNDQELIGKVFDGILKRLGDMKADSDDVKENGRNLLVNLLCWTVNNDFLGKKYKERQVDLYRMALKFYPKTYEKAANEADVRSRQFCEENFPANLITWFAVSWNDRG
modifications: biotin (BirA500 kit) in the yeast library screen
B1: the koff is 0.0121 s⁻¹.
